Experimental data from article PMC10057847, “Precision engineering of biological function with large-scale measurements and machine learning” (PLOS ONE, 2023).
Several values for one entry are separate records, joined by “and”; a condition that tells them apart may be missing. Equal entries are not always repeated.

Test system: eYFP under the control of the lactose operator (lacO)
Assay: in vivo dose-response curves of LacI variants to IPTG measured with flow cytometry (eYFP output), fit to the Hill equation
Format: cell-based, E. coli
Conditions: for dose-response phenotype (in words): IPTG dose-response by flow cytometry; for n: the Hill coefficient: IPTG dose-response; for log_g0: the base-10 logarithm of G0 (in MEF) / log_ginf: the base-10 logarithm of G∞ (in MEF): value is log10; for log_ginf: the base-10 logarithm of G∞ (in MEF): saturating output; for geo_mean: geometric mean of the YFP signal measured by cytometry: clone A
Protocol: Dose-response curves were measured with flow cytometry using E. coli MG1655Δlac transformed with variants of the pVER plasmid, described previously. The plasmid contained different variants of the lacI coding DNA sequence (CDS), as described in the text, and an expression cassette with enhanced yellow fluorescent protein (eYFP) under the control of the lactose operator (lacO). The lacI CDS was verified with Sanger sequencing for each variant.
All cultures were grown in a rich M9 media (3 g/L KH2PO4, 6.78 g/L Na2HPO4, 0.5 g/L NaCl, 1 g/L NH4Cl, 0.1 mmol/L CaCl2, 2 mmol/L MgSO4, 4% glycerol, and 20 g/L casamino acids) supplemented with 50 μg/mL kanamycin.
For flow cytometry measurements, E. coli cultures were grown in a laboratory automation system that included an automated liquid handler (Hamilton, STAR), an automated plate sealer (4titude, a4S), an automated de-sealer (Brooks, XPeel), and two multi-mode plate readers (BioTek, Neo2SM).
Cultures were grown in clear polystyrene 96-well plates with 1.1 mL square wells (4titude, 4ti-0255). The culture volume per well was 0.5 mL. Before incubation, each 96-well growth plate was sealed by the automated plate sealer with a gas permeable membrane (4titude, 4ti-0598). Growth plates were incubated in one of the multi-mode plate readers at 37°C with a 1°C gradient applied from the bottom to the top of the incubation chamber to minimize condensation on the inside of the membrane. The plate readers were set for double-orbital shaking at 807 cycles per minute. Optical density at 600 nm (OD600) was measured every 5 minutes during incubation, with continuous shaking applied between measurements (optical density at 700 nm and YFP fluorescence were also measured every 5 minutes). After incubation, the automated de-sealer was used to remove the gas-permeable membrane from each 96-well plate to enable automated passaging of cultures and sample preparation for flow cytometry measurements.
For each measurement, starter cultures were prepared from glycerol freezer stock in 5 mL of rich M9 media in a 14 mL snap-cap culture tubes. Starter cultures were incubated at 37°C with orbital shaking at 300 rpm for between 4 h and 24 h prior to loading the automation system. The automation system then prepared 96-well growth plates, sealed and de-sealed the growth plates, incubated the growth plates, and prepared flow cytometry sample plates. The automated culture protocol consisted of the following steps: […]

[1] = basal output, Hill fit of cytometry data, posterior mean
[2] = Hill fit of cytometry data, posterior mean

B1: pVER-IPTG-WT(Q181H): LacI variant: Q181H (protein, UniProt P03023 1-360, looked up, variant Q181H)
Lactose operon repressor: MKPVTLYDVAEYAGVSYQTVSRVVNQASHVSAKTREKVEAAMAELNYIPNRVAQQLAGKQSLLIGVATSSLALHAPSQIVAAIKSRADQLGASVVVSMVERSGVEACKAAVHNLLAQRVSGLIINYPLDDQDAIAVEAACTNVPALFLDVSDQTPINSIIFSHEDGTRLGVEHLVALGHQHIALLAGPLSSVSARLRLAGWHKYLTRNQIQPIAEREGDWSAMSGFQQTMQMLNEGIVPTAMLVANDQMALGAMRAITESGLRVGADISVVGYDDTEDSSCYIPPLTTIKQDFRLLGQTSVDRLLQLSQGQAVKGNQLLPVSLVKRKTTLAPNTQTASPRALADSLMQLARQVSRLESGQ
- dose-response phenotype (in words): silent in wild-type background

B2: pVER-IPTG-WT(V271M): LacI variant: V271M (protein, UniProt P03023 1-360, looked up, variant V271M)
Lactose operon repressor: MKPVTLYDVAEYAGVSYQTVSRVVNQASHVSAKTREKVEAAMAELNYIPNRVAQQLAGKQSLLIGVATSSLALHAPSQIVAAIKSRADQLGASVVVSMVERSGVEACKAAVHNLLAQRVSGLIINYPLDDQDAIAVEAACTNVPALFLDVSDQTPINSIIFSHEDGTRLGVEHLVALGHQQIALLAGPLSSVSARLRLAGWHKYLTRNQIQPIAEREGDWSAMSGFQQTMQMLNEGIVPTAMLVANDQMALGAMRAITESGLRVGADISVMGYDDTEDSSCYIPPLTTIKQDFRLLGQTSVDRLLQLSQGQAVKGNQLLPVSLVKRKTTLAPNTQTASPRALADSLMQLARQVSRLESGQ
- dose-response phenotype (in words): silent in wild-type background

B3: pVER-IPTG-WT: wild-type LacI (lac repressor) on the pVER plasmid (protein, UniProt P03023 1-360, looked up)
Lactose operon repressor: MKPVTLYDVAEYAGVSYQTVSRVVNQASHVSAKTREKVEAAMAELNYIPNRVAQQLAGKQSLLIGVATSSLALHAPSQIVAAIKSRADQLGASVVVSMVERSGVEACKAAVHNLLAQRVSGLIINYPLDDQDAIAVEAACTNVPALFLDVSDQTPINSIIFSHEDGTRLGVEHLVALGHQQIALLAGPLSSVSARLRLAGWHKYLTRNQIQPIAEREGDWSAMSGFQQTMQMLNEGIVPTAMLVANDQMALGAMRAITESGLRVGADISVVGYDDTEDSSCYIPPLTTIKQDFRLLGQTSVDRLLQLSQGQAVKGNQLLPVSLVKRKTTLAPNTQTASPRALADSLMQLARQVSRLESGQ
- n: the Hill coefficient (Hill fit of cytometry data): 1.559
- G0 (basal output): 158 MEF
- log_g0: the base-10 logarithm of G0 (in MEF) [1]: 2.097 MEF
- log_ginf: the base-10 logarithm of G∞ (in MEF) [2]: 4.44 MEF

B4: pVER-IPTG-WT(N208Y): LacI variant: N208Y (protein, UniProt P03023 1-360, looked up, variant N208Y)
Lactose operon repressor: MKPVTLYDVAEYAGVSYQTVSRVVNQASHVSAKTREKVEAAMAELNYIPNRVAQQLAGKQSLLIGVATSSLALHAPSQIVAAIKSRADQLGASVVVSMVERSGVEACKAAVHNLLAQRVSGLIINYPLDDQDAIAVEAACTNVPALFLDVSDQTPINSIIFSHEDGTRLGVEHLVALGHQQIALLAGPLSSVSARLRLAGWHKYLTRYQIQPIAEREGDWSAMSGFQQTMQMLNEGIVPTAMLVANDQMALGAMRAITESGLRVGADISVVGYDDTEDSSCYIPPLTTIKQDFRLLGQTSVDRLLQLSQGQAVKGNQLLPVSLVKRKTTLAPNTQTASPRALADSLMQLARQVSRLESGQ
- dose-response phenotype (in words): silent in wild-type background

B5: pVER-IPTG-001: LacI variant: Q55H D130E V192A T258I D267N Y273H N333I (protein, UniProt P03023 1-360, looked up, variant Q55H D130E V192A T258I D267N Y273H N333I)
Lactose operon repressor: MKPVTLYDVAEYAGVSYQTVSRVVNQASHVSAKTREKVEAAMAELNYIPNRVAQHLAGKQSLLIGVATSSLALHAPSQIVAAIKSRADQLGASVVVSMVERSGVEACKAAVHNLLAQRVSGLIINYPLDEQDAIAVEAACTNVPALFLDVSDQTPINSIIFSHEDGTRLGVEHLVALGHQQIALLAGPLSSASARLRLAGWHKYLTRNQIQPIAEREGDWSAMSGFQQTMQMLNEGIVPTAMLVANDQMALGAMRAIIESGLRVGANISVVGHDDTEDSSCYIPPLTTIKQDFRLLGQTSVDRLLQLSQGQAVKGNQLLPVSLVKRKTTLAPITQTASPRALADSLMQLARQVSRLESGQ
- geo_mean: geometric mean of the YFP signal measured by cytometry (IPTG 0.0 μmol/L): 26059.303161112988 and 23664.3303473106
- geo_mean: geometric mean of the YFP signal measured by cytometry (IPTG 2.0 μmol/L): 26140.44981266789
- geo_mean: geometric mean of the YFP signal measured by cytometry (IPTG 4.0 μmol/L): 26093.69376618197
- geo_mean: geometric mean of the YFP signal measured by cytometry (IPTG 8.0 μmol/L): 26130.45714766927

B6: pVER-IPTG-WT(Q231R): LacI variant: Q231R (protein, UniProt P03023 1-360, looked up, variant Q231R)
Lactose operon repressor: MKPVTLYDVAEYAGVSYQTVSRVVNQASHVSAKTREKVEAAMAELNYIPNRVAQQLAGKQSLLIGVATSSLALHAPSQIVAAIKSRADQLGASVVVSMVERSGVEACKAAVHNLLAQRVSGLIINYPLDDQDAIAVEAACTNVPALFLDVSDQTPINSIIFSHEDGTRLGVEHLVALGHQQIALLAGPLSSVSARLRLAGWHKYLTRNQIQPIAEREGDWSAMSGFQQTMRMLNEGIVPTAMLVANDQMALGAMRAITESGLRVGADISVVGYDDTEDSSCYIPPLTTIKQDFRLLGQTSVDRLLQLSQGQAVKGNQLLPVSLVKRKTTLAPNTQTASPRALADSLMQLARQVSRLESGQ
- dose-response phenotype (in words): silent in wild-type background

B7: pVER-IPTG-WT(V136E/G200C): LacI variant: V136E G200C (protein, UniProt P03023 1-360, looked up, variant V136E G200C)
Lactose operon repressor: MKPVTLYDVAEYAGVSYQTVSRVVNQASHVSAKTREKVEAAMAELNYIPNRVAQQLAGKQSLLIGVATSSLALHAPSQIVAAIKSRADQLGASVVVSMVERSGVEACKAAVHNLLAQRVSGLIINYPLDDQDAIAEEAACTNVPALFLDVSDQTPINSIIFSHEDGTRLGVEHLVALGHQQIALLAGPLSSVSARLRLACWHKYLTRNQIQPIAEREGDWSAMSGFQQTMQMLNEGIVPTAMLVANDQMALGAMRAITESGLRVGADISVVGYDDTEDSSCYIPPLTTIKQDFRLLGQTSVDRLLQLSQGQAVKGNQLLPVSLVKRKTTLAPNTQTASPRALADSLMQLARQVSRLESGQ
- EC50 (IPTG as ligand, Hill fit of cytometry data, posterior mean, read-out: log_ec50: the base-10 logarithm of EC50 (converted)): 2.48 µM
- dose-response phenotype (in words): band-stop dose-response curve
- n: the Hill coefficient (Hill fit of cytometry data): 2.118
- log_g0: the base-10 logarithm of G0 (in MEF) [1]: 3.294 MEF
- log_ginf: the base-10 logarithm of G∞ (in MEF) [2]: 4.168 MEF

B8: pVER-IPTG-WT(V136E): LacI variant: V136E (protein, UniProt P03023 1-360, looked up, variant V136E)
Lactose operon repressor: MKPVTLYDVAEYAGVSYQTVSRVVNQASHVSAKTREKVEAAMAELNYIPNRVAQQLAGKQSLLIGVATSSLALHAPSQIVAAIKSRADQLGASVVVSMVERSGVEACKAAVHNLLAQRVSGLIINYPLDDQDAIAEEAACTNVPALFLDVSDQTPINSIIFSHEDGTRLGVEHLVALGHQQIALLAGPLSSVSARLRLAGWHKYLTRNQIQPIAEREGDWSAMSGFQQTMQMLNEGIVPTAMLVANDQMALGAMRAITESGLRVGADISVVGYDDTEDSSCYIPPLTTIKQDFRLLGQTSVDRLLQLSQGQAVKGNQLLPVSLVKRKTTLAPNTQTASPRALADSLMQLARQVSRLESGQ
- dose-response phenotype (in words): reduced G∞ but G0 and EC50 similar to the wild type

B9: pVER-IPTG-WT(S279T/V136E): LacI variant: V136E S279T (protein, UniProt P03023 1-360, looked up, variant V136E S279T)
Lactose operon repressor: MKPVTLYDVAEYAGVSYQTVSRVVNQASHVSAKTREKVEAAMAELNYIPNRVAQQLAGKQSLLIGVATSSLALHAPSQIVAAIKSRADQLGASVVVSMVERSGVEACKAAVHNLLAQRVSGLIINYPLDDQDAIAEEAACTNVPALFLDVSDQTPINSIIFSHEDGTRLGVEHLVALGHQQIALLAGPLSSVSARLRLAGWHKYLTRNQIQPIAEREGDWSAMSGFQQTMQMLNEGIVPTAMLVANDQMALGAMRAITESGLRVGADISVVGYDDTEDTSCYIPPLTTIKQDFRLLGQTSVDRLLQLSQGQAVKGNQLLPVSLVKRKTTLAPNTQTASPRALADSLMQLARQVSRLESGQ
- dose-response phenotype (in words): more complicated non-monotonic dose-response (high-low-high-low)

B10: pVER-IPTG-WT(S190C): LacI variant: S190C (protein, UniProt P03023 1-360, looked up, variant S190C)
Lactose operon repressor: MKPVTLYDVAEYAGVSYQTVSRVVNQASHVSAKTREKVEAAMAELNYIPNRVAQQLAGKQSLLIGVATSSLALHAPSQIVAAIKSRADQLGASVVVSMVERSGVEACKAAVHNLLAQRVSGLIINYPLDDQDAIAVEAACTNVPALFLDVSDQTPINSIIFSHEDGTRLGVEHLVALGHQQIALLAGPLCSVSARLRLAGWHKYLTRNQIQPIAEREGDWSAMSGFQQTMQMLNEGIVPTAMLVANDQMALGAMRAITESGLRVGADISVVGYDDTEDSSCYIPPLTTIKQDFRLLGQTSVDRLLQLSQGQAVKGNQLLPVSLVKRKTTLAPNTQTASPRALADSLMQLARQVSRLESGQ
- dose-response phenotype (in words): silent in wild-type background
